Reference: patent publication US6329500
Values belong to the substance of their own block, whether it stands above or below them.

Assays:
[1] = target: GST-α2 M peptide-fusion protein FP3 (human) (UniProt P01023); assay: ligand blot; ^125 I-TGF-β2 on PVDF-immobilized FP3 with 0.2 µM unlabeled TGF-β2
[2] = target: methylamine-modified human α2 -macroglobulin (α2 M-MA) (human) (UniProt P01023); assay: ^125 I-TGF-β2 in α2 M-MA-coated wells with 0.2 µM unlabeled TGF-β
[3] = target: transforming growth factor-β1 (TGF-β1); assay: 0.1 nM ^125 I-TGF-β1 in α2 M-MA-coated microtiter wells, 1 h
[4] = target: transforming growth factor-β2 (TGF-β2); assay: 0.1 nM ^125 I-TGF-β2 in α2 M-MA-coated microtiter wells, 1 h
[5] = target: transforming growth factor-β1 (TGF-β1); assay: solution-phase competitor of ^125 I-TGF-β1 binding to immobilized α2 M-MA
[6] = target: GST-α2 M peptide-fusion protein FP3 (human) (UniProt P01023); assay: ligand blot; ^125 I-TGF-β1 on PVDF-immobilized FP3 with 0.2 µM unlabeled TGF-β1
[7] = target: methylamine-modified human α2 -macroglobulin (α2 M-MA) (human) (UniProt P01023); assay: ^125 I-TGF-β1 in α2 M-MA-coated wells with 0.2 µM unlabeled TGF-β

- percent inhibition of binding [1]: 90%
- percent decrease of binding [2]: > 75%
Substance: transforming growth factor-β2 (TGF-β2) (ligand)

- amount of ^125 I-TGF-β bound [3]: 3.4 fmol
- amount of ^125 I-TGF-β bound [4]: 2.6 fmol
Substance: methylamine-modified human α2 -macroglobulin (α2 M-MA) (from UniProt P01023)

- IC50 [5]: 360 nM
Substance: monomeric human α2 -macroglobulin (from UniProt P01023)

- percent inhibition of binding [6]: 72%
- percent decrease of binding [7]: > 75%
Substance: transforming growth factor-β1 (TGF-β1) (ligand)
